This is an account of results in US20170267766A1 (PIERRE FABRE MEDICAMENT, published 2017).

Experiment [1] addresses T1, monkey IGF-1R (on COS-7 cells) (African green monkey).
T1 construct: whole, on cells
In words: FACS titration, Cos-7. How it is done: (§1) The binding properties of the humanized variants were evaluated by FACS analyses on the human MCF-7 breast adenocarcinoma cell line and the monkey cell line Cos-7 using increasing antibody concentrations. For that purpose, cells (1×10⁶ cells/ml) were incubated with anti-IGF-1R humanized antibodies for 20 min. at 4° C. in FACS buffer (PBS, 0.1% BSA, 0.01% NaN3). They were then washed 3 times and incubated with the appropriate secondary antibody coupled with Alexa 488 for 20 additional minutes at 4° C. in the dark before being washed 3 times in FACS buffer. The binding of anti-IGF-1R antibodies was immediately performed on viable cells which were identified using propidium iodide (that stains dead cells). The EC₅₀ of binding expressed in molarity (M) was calculated using a nonlinear regression analysis (GraphPad Prims 4.0).

In experiment [2] the target is T2, human IGF-1R (native, on cells) (human, UniProt P08069 31-1367).
T2 construct: also called hIGF-1R; native IGF-1R on MCF-7 cells
The experiment in a line: FACS titration, MCF-7. How it is done:
as §1

B1: hz208F2 H070/L018 (antibody, human IgG1, kappa, V domains shown)
VH: QVQLVQSGAEVKKPGASVKVSCKASGYTFTSYYMHWVRQAPGQGLEWMGWIWPGDGSTKYAQKFQGRVTMTRDTSTSTVYMELSSLRSEDTAVYYCASPMITPNYAMDYWGQGTLVTVSS
VL: DIQMTQSPSSLSASVGDRVTITCRASQDISKYLNWYQQKPGKAPKLLIYYTSRLQSGVPSRFSGRGSGTDYSLTISSLQPEDFATYFCQQGSTLPYTFGGGTKVEIKR
notes: humanized 208F2 variant
In the case of B1, the EC50 stood at 0.73 nM in experiment [1] and 0.46 nM in experiment [2].

B2: hz208F2 H049/L021 (antibody, human IgG1, kappa, V domains shown)
VH: QVQLVQSGAEVKKPGASVKVSCKASGYTFTSYYMHWVRQAPGQGLEWMGWIWPGDGSTKYAQKFQGRVTMTRDKSSSTVYMELSSLRSEDTAVYYCASPMITPNYAMDYWGQGTLVTVSS
VL: DIQMTQSPSSLSASVGDRVTITCRASQDISKYLNWYQQKPGKAPKLLIYYTSRLHSGVPSRFSGRGSGTDFSLTISSLQPEDFATYFCQQGSTLPYTFGGGTKVEIKR
notes: humanized 208F2 variant
Molecule B2 displayed an EC50 in experiment [1] of 0.85 nM.

B3: hz208F2 H052/L021 (antibody, human IgG1, kappa, V domains shown)
VH: QVQLVQSGAEVKKPGASVKVSCKASGYTFTSYYMHWVRQAPGQGLEWMGWIWPGDGSTKYAQKFQGRVTMTRDTSTSTVYMELSSLRSEDTAVYFCASPMITPNYAMDYWGQGTLVTVSS
VL: DIQMTQSPSSLSASVGDRVTITCRASQDISKYLNWYQQKPGKAPKLLIYYTSRLHSGVPSRFSGRGSGTDFSLTISSLQPEDFATYFCQQGSTLPYTFGGGTKVEIKR
notes: humanized 208F2 variant
For the molecule B3, the EC50 in experiment [1] was 1.2 nM; in experiment [2] it was 0.57 nM.

B4: hz208F2 H049/L018 (antibody, human IgG1, kappa, V domains shown)
VH: QVQLVQSGAEVKKPGASVKVSCKASGYTFTSYYMHWVRQAPGQGLEWMGWIWPGDGSTKYAQKFQGRVTMTRDKSSSTVYMELSSLRSEDTAVYYCASPMITPNYAMDYWGQGTLVTVSS
VL: DIQMTQSPSSLSASVGDRVTITCRASQDISKYLNWYQQKPGKAPKLLIYYTSRLQSGVPSRFSGRGSGTDYSLTISSLQPEDFATYFCQQGSTLPYTFGGGTKVEIKR
notes: humanized 208F2 variant
Regarding B4, the EC50 in experiment [1] was 0.69 nM; in experiment [2], 0.49 nM.

B5: hz208F2 H068/L018 (antibody, human IgG1, kappa, V domains shown)
VH: QVQLVQSGAEVKKPGASVKVSCKASGYTFTSYYMHWVRQAPGQGLEWMGWIWPGDGSTKYAQKFQGRVTMTRDTSTNTVYMELSSLRSEDTAVYFCASPMITPNYAMDYWGQGTLVTVSS
VL: DIQMTQSPSSLSASVGDRVTITCRASQDISKYLNWYQQKPGKAPKLLIYYTSRLQSGVPSRFSGRGSGTDYSLTISSLQPEDFATYFCQQGSTLPYTFGGGTKVEIKR
notes: humanized 208F2 variant
In the case of B5, the EC50 is 1.2 nM in experiment [1] and 1.1 nM in experiment [2].

B6: hz208F2 H051/L018 (antibody, human IgG1, kappa, V domains shown)
VH: QVQLVQSGAEVKKPGASVKVSCKASGYTFTSYYMHWVRQAPGQGLEWMGWIWPGDGSTKYAQKFQGRVTMTRDTSSNTVYMELSSLRSEDTAVYFCASPMITPNYAMDYWGQGTLVTVSS
VL: DIQMTQSPSSLSASVGDRVTITCRASQDISKYLNWYQQKPGKAPKLLIYYTSRLQSGVPSRFSGRGSGTDYSLTISSLQPEDFATYFCQQGSTLPYTFGGGTKVEIKR
notes: humanized 208F2 variant
Consider B6, for which the half-maximal effective concentration (EC50) is 0.72 nM in experiment [1] and 0.57 nM in experiment [2].

B7: hz208F2 H077/L018 (antibody, human IgG1, kappa, V domains shown)
VH: QVQLVQSGAEVKKPGASVKVSCKASGYTFTSYYIHWVRQAPGQGLEWMGWIWPGDGSTKYAQKFQGRVTMTRDTSTSTVYMELSSLRSEDTAVYFCASPMITPNYAMDYWGQGTLVTVSS
VL: DIQMTQSPSSLSASVGDRVTITCRASQDISKYLNWYQQKPGKAPKLLIYYTSRLQSGVPSRFSGRGSGTDYSLTISSLQPEDFATYFCQQGSTLPYTFGGGTKVEIKR
notes: humanized 208F2 variant
Consider B7, for which the EC50 in experiment [1] was found to be 1.1 nM; in experiment [2] it was 0.77 nM.

B8: hz208F2 H076/L018 (antibody, human IgG1, kappa, V domains shown)
VH: QVQLVQSGAEVKKPGASVKVSCKASGYTFTSYYIHWVRQAPGQGLEWMGWIWPGDGSTKYAQKFQGRVTMTRDTSTSTVYMELSSLRSEDTAVYYCASPMITPNYAMDYWGQGTLVTVSS
VL: DIQMTQSPSSLSASVGDRVTITCRASQDISKYLNWYQQKPGKAPKLLIYYTSRLQSGVPSRFSGRGSGTDYSLTISSLQPEDFATYFCQQGSTLPYTFGGGTKVEIKR
notes: humanized 208F2 variant
Take B8: the EC50 in experiment [1] stood at 1.1 nM; in experiment [2], 0.65 nM.

B9: hz208F2 H052/L018 (antibody, human IgG1, kappa, V domains shown)
VH: QVQLVQSGAEVKKPGASVKVSCKASGYTFTSYYMHWVRQAPGQGLEWMGWIWPGDGSTKYAQKFQGRVTMTRDTSTSTVYMELSSLRSEDTAVYFCASPMITPNYAMDYWGQGTLVTVSS
VL: DIQMTQSPSSLSASVGDRVTITCRASQDISKYLNWYQQKPGKAPKLLIYYTSRLQSGVPSRFSGRGSGTDYSLTISSLQPEDFATYFCQQGSTLPYTFGGGTKVEIKR
notes: humanized 208F2 variant
For B9, the figures for the EC50 in experiment [1] and in experiment [2] were 0.99 nM and 0.84 nM, respectively.

B10: hz208F2 H076/L021 (antibody, human IgG1, kappa, V domains shown)
VH: QVQLVQSGAEVKKPGASVKVSCKASGYTFTSYYIHWVRQAPGQGLEWMGWIWPGDGSTKYAQKFQGRVTMTRDTSTSTVYMELSSLRSEDTAVYYCASPMITPNYAMDYWGQGTLVTVSS
VL: DIQMTQSPSSLSASVGDRVTITCRASQDISKYLNWYQQKPGKAPKLLIYYTSRLHSGVPSRFSGRGSGTDFSLTISSLQPEDFATYFCQQGSTLPYTFGGGTKVEIKR
notes: humanized 208F2 variant
In experiment [1], B10 gave an EC50 of 1.1 nM.

B11: hz208F2 H057/L018 (antibody, human IgG1, kappa, V domains shown)
VH: QVQLVQSGAEVKKPGASVKVSCKASGYTFTSYYIHWVRQAPGQGLEWMGWIWPGDGSTKYAQKFQGRVTMTRDKSTNTVYMELSSLRSEDTAVYYCASPMITPNYAMDYWGQGTLVTVSS
VL: DIQMTQSPSSLSASVGDRVTITCRASQDISKYLNWYQQKPGKAPKLLIYYTSRLQSGVPSRFSGRGSGTDYSLTISSLQPEDFATYFCQQGSTLPYTFGGGTKVEIKR
notes: humanized 208F2 variant
With B11, the EC50 amounted to 0.83 nM in experiment [1] and 0.58 nM in experiment [2].

B12: hz208F2 H037/L021 (antibody, human IgG1, kappa, V domains shown)
VH: QVQLVQSGAEVKKPGASVKVSCKASGYTFTSYYMHWVRQAPGQGLEWMGWIWPGDGSTKYAQKFQGRVTMTRDKSSSTVYMELSSLRSEDTAVYFCASPMITPNYAMDYWGQGTLVTVSS
VL: DIQMTQSPSSLSASVGDRVTITCRASQDISKYLNWYQQKPGKAPKLLIYYTSRLHSGVPSRFSGRGSGTDFSLTISSLQPEDFATYFCQQGSTLPYTFGGGTKVEIKR
notes: humanized 208F2 variant
In the case of B12, the values for the EC50 in experiment [1] and in experiment [2] were 0.82 nM and 0.48 nM, respectively.

B13: hz208F2 H071/L018 (antibody, human IgG1, kappa, V domains shown)
VH: QVQLVQSGAEVKKPGASVKVSCKASGYTFTSYYMHWVRQAPGQGLEWMGWIWPGDGSTKYAQKFQGRVTMTRDTSTNTVYMELSSLRSEDTAVYYCASPMITPNYAMDYWGQGTLVTVSS
VL: DIQMTQSPSSLSASVGDRVTITCRASQDISKYLNWYQQKPGKAPKLLIYYTSRLQSGVPSRFSGRGSGTDYSLTISSLQPEDFATYFCQQGSTLPYTFGGGTKVEIKR
notes: humanized 208F2 variant
As to B13, the EC50 in experiment [1] came out at 1.1 nM; in experiment [2] it was 0.55 nM.

B14: hz208F2 H037/L018 (antibody, human IgG1, kappa, V domains shown)
VH: QVQLVQSGAEVKKPGASVKVSCKASGYTFTSYYMHWVRQAPGQGLEWMGWIWPGDGSTKYAQKFQGRVTMTRDKSSSTVYMELSSLRSEDTAVYFCASPMITPNYAMDYWGQGTLVTVSS
VL: DIQMTQSPSSLSASVGDRVTITCRASQDISKYLNWYQQKPGKAPKLLIYYTSRLQSGVPSRFSGRGSGTDYSLTISSLQPEDFATYFCQQGSTLPYTFGGGTKVEIKR
notes: humanized 208F2 variant
On to B14, for which the values for the EC50 in experiment [1] and in experiment [2] were 0.74 nM and 0.49 nM, respectively.

B15: hz208F2 H047/L018 (antibody, human IgG1, kappa, V domains shown)
VH: QVQLVQSGAEVKKPGASVKVSCKASGYTFTSYYIHWVRQAPGQGLEWMGWIWPGDGSTKYAQKFQGRVTMTRDTSSNTVYMELSSLRSEDTAVYYCASPMITPNYAMDYWGQGTLVTVSS
VL: DIQMTQSPSSLSASVGDRVTITCRASQDISKYLNWYQQKPGKAPKLLIYYTSRLQSGVPSRFSGRGSGTDYSLTISSLQPEDFATYFCQQGSTLPYTFGGGTKVEIKR
notes: humanized 208F2 variant
On to B15, for which the figures for the EC50 in experiment [1] and in experiment [2] were 0.92 nM and 0.77 nM, respectively.
